Drawing on article PMC2749490, this text covers Km for one substance.

For the data set, the system named is CC(C)C[C@H](NC(=O)[C@H](CO)NC(=O)[C@H](C)NC(=O)[C@H](CCCNC(=N)N)NC(=O)[C@H](CCCNC(=N)N)NC(=O)[C@@H](N)CC(C)C)C(=O)NCC(=O)O. The format is biochemical. The conditions noted are these: other: from the noncompetitive inhibition model fit; pH 7.4.

What is called Km is the substrate concentration at which the rate is half of its maximum. Turning to PKA (Homo sapiens), the Km came out at 12 µM.
